The supplement of paper PMC12042874
± gives the uncertainty stated by the source.

Test: amyloid nucleation score (Sup35N fusion, yeast selection) (log enrichment); library NNK1; higher = more nucleation; inactive = no reads after selection
Method in brief: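 Three technical output replicates were used for random libraries. Psi-negative yeast expressing peptides of 20 random codons fused to Sup35N were induced with 100 μM copper sulfate for 24 hours and grown 7 days at 30°C on medium lacking adenine and uracil, and input and output plasmid inserts were Illumina-sequenced, excluding sequences with under 100 input reads. The nucleation score is the DiMSum log enrichment of output over input reads, centred on the mode score of non-aggregating sequences.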

TDSAVRDWTRR and TDSCYHCNLYMYHSS are within error of each other in amyloid nucleation score: 0.532 ± 0.79 for the first, 0.723 ± 0.9 for the second.

TDSEVAFVNGTNSQRWFFGW and TDVMSHGSAETGWCFLMSAF are within error of each other in amyloid nucleation score: 1.07 ± 0.53 for the first, 0.124 ± 0.7 for the second.

Compared with TDYIHLSIMIDFLGFTFQDR, TEGTYDNSSCHSDALGECLW is lower in amyloid nucleation score: 1.46 ± 0.43 for the first, 0.281 ± 0.33 for the second.

Compared with TFCLLSINLEFINVLRLFKS, TFECIIWFLGATVMSMQLFI is lower in amyloid nucleation score: 3.58 ± 0.12 for the first, 1.93 ± 0.62 for the second.

First: TFFCTYTYLWLICIIGQYYF
Second: TFGSVGYI
The amyloid nucleation score of the first is higher: 3.44 ± 0.11 for the first, 0.116 ± 0.45 for the second.

Compared with TFGTKRRLGL, TFHNSYLYGTRNVWMLYSVR is higher in amyloid nucleation score: 1.47 ± 0.5 for the first, 3.47 ± 0.091 for the second.

First: TFIAGAI
Second: TFIFAGDIT
The amyloid nucleation score of the first is lower: -0.44 ± 0.37 for the first, 1.38 ± 0.17 for the second.

TFLTCYRPGPIDNSWRIVSM and TFMLATDGV are within error of each other in amyloid nucleation score: 1.1 ± 0.41 for the first, 0.595 ± 0.69 for the second.

TFMNRLPMNLDLLIGLTCNL and TFPGSHLFTFLMMEGSLNHG are within error of each other in amyloid nucleation score: 0.492 ± 0.38 for the first, 0.694 ± 0.64 for the second.

TFQLKMWEHVVLPDVSMAST and TFRRFGYTELYCGENSLLEC are within error of each other in amyloid nucleation score: 0.669 ± 0.48 for the first, -0.036 ± 0.84 for the second.

TFSLCKWVHSANKGLVQMTF and TFSWYRLRSVMGLVGNAAMI are within error of each other in amyloid nucleation score: 0.265 ± 0.41 for the first, 0.31 ± 0.61 for the second.

Compared with TFTCMPLLWLIFS, TFTDS is lower in amyloid nucleation score: 6.029 ± 0.057 for the first, 0.176 ± 0.75 for the second.

Compared with TFTLNFCGLQF, TFVGLRVSAHRTQWALGDT is lower in amyloid nucleation score: 7.124 ± 0.059 for the first, -1.51 ± 2.4 for the second.

TFVLV and TFVLYGCDRKVFRRNVVTAS are within error of each other in amyloid nucleation score: 0.332 ± 0.74 for the first, 0.316 ± 0.35 for the second.

Going from TFVVFFCWLGS to TGDDSYDVLLVGLVKTSGVY, the amyloid nucleation score falls from 5.12 ± 0.093 to -0.234 ± 0.34.

TGDLGRTGKVTLGTLEDSKI and TGLLLLIRNICYCLNLQLWG are within error of each other in amyloid nucleation score: -0.694 ± 0.56 for the first, 0.271 ± 0.53 for the second.

TGLLSR and TGLSWVYSFRIEYVKVGFY are within error of each other in amyloid nucleation score: 1.33 ± 0.9 for the first, 0.426 ± 0.9 for the second.

TGPKRLTDNREFRKF and TGRAPSVLHNKR are within error of each other in amyloid nucleation score: -1.01 ± 2.7 for the first, -0.842 ± 0.64 for the second.

TGSLVFLTLTLLLVCYLPIT and TGTPYLLHLNWNLGSGMSGT are within error of each other in amyloid nucleation score: 0.302 ± 0.43 for the first, 0.451 ± 0.2 for the second.

Going from TGWLWYQHRWSDTWLPGTMR to THFVLE, the amyloid nucleation score falls from 2.04 ± 0.15 to 0.53 ± 0.28.

First: THLVTCKGGLSMPDLVYRHV
Second: THMGRTLSCFGMMSWSSDVA
The amyloid nucleation score of the first is lower: 0.183 ± 0.28 for the first, 5.88 ± 0.065 for the second.

THSSGINVTPPDVCSLITLT and THVIRVGNQRSLRVFSRGVS are within error of each other in amyloid nucleation score: -0.159 ± 1.2 for the first, 1.32 ± 0.41 for the second.

Compared with THVSDFLWDVNVSGNNTCSR, THWLNRTGCVRTHPVQSGKE is lower in amyloid nucleation score: 1.14 ± 0.37 for the first, -1.09 ± 1 for the second.

Compared with TIDIV, TIGLCAMYSAARLLV is lower in amyloid nucleation score: 2.28 ± 0.13 for the first, 0.717 ± 0.93 for the second.

TIGPSGNLEGCVLSVGASNI and TIIVDDGWRAYSRLS are within error of each other in amyloid nucleation score: -1.35 ± 1.2 for the first, 0.22 ± 0.71 for the second.

Compared with TIRARMVCLNCQMVR, TISGLFLSRLYSKTMGGC is lower in amyloid nucleation score: 3.54 ± 0.079 for the first, 1.89 ± 0.62 for the second.

Compared with TISSLLFI, TIVELFYDRSLR is higher in amyloid nucleation score: -0.252 ± 0.47 for the first, 1.17 ± 0.33 for the second.

Going from TIYTSSGVVMALVHRLHLVA to TKGFLSNGFLVWPVCIVILW, the amyloid nucleation score rises from -1.1 ± 0.68 to 0.387 ± 0.77.

TKILRP and TKMVWASALWAHSPVMY are within error of each other in amyloid nucleation score: 0.33 ± 0.22 for the first, 0.724 ± 1.2 for the second.

TKPMIMSTFSEFCIPCTMRL and TKVGFFQRLGYEQVCNCKML are within error of each other in amyloid nucleation score: 0.182 ± 0.55 for the first, 0.244 ± 0.49 for the second.

TLCINWKPFP and TLCQNSGKFCMYTWLSVYVD are within error of each other in amyloid nucleation score: 0.308 ± 0.38 for the first, 0.423 ± 0.26 for the second.

TLDLWNVRFC and TLFPVRNTMMFLESYS are within error of each other in amyloid nucleation score: -0.057 ± 1.4 for the first, -0.742 ± 0.41 for the second.

TLGAYQSCRGNVIMGQGTFV and TLGPAWNVKFAWVFSFLVCI are within error of each other in amyloid nucleation score: 0.266 ± 0.46 for the first, 0.933 ± 0.7 for the second.

First: TLIGFWPTRSFSSAVRYNPN
Second: TLIWSCARHWV
The amyloid nucleation score of the first is lower: -0.116 ± 1 for the first, 1.44 ± 0.22 for the second.

First: TLLSVTYSCIRMPVPMAYRS
Second: TLQNNLTFPDCLGLRCGSHV
The amyloid nucleation score of the first is lower: 4.42 ± 0.085 for the first, 5.03 ± 0.085 for the second.

TLQTTWLKNLGDLSSSREAS and TLRCDFLPRNKF are within error of each other in amyloid nucleation score: -0.184 ± 0.41 for the first, -0.595 ± 1.4 for the second.

TLRSTWFRMCHTISA and TLVLYVKRCWESGLISNECF are within error of each other in amyloid nucleation score: 0.441 ± 0.25 for the first, -0.699 ± 1.5 for the second.

Going from TLYPHTGEGGKRLDLGCLSR to TMFLVSRDFRGIVLYWITTF, the amyloid nucleation score falls from 1.39 ± 0.48 to -0.364 ± 0.78.

First: TMSFSFF
Second: TMYWITQKVEKSSHMVCRVT
The amyloid nucleation score of the first is lower: 0.855 ± 0.28 for the first, 2.61 ± 0.078 for the second.

TNINSSTDKRLPTET and TNRPLVLTDNVNKSLKMRLP are within error of each other in amyloid nucleation score: -0.013 ± 0.5 for the first, 0.638 ± 0.27 for the second.

Going from TNSPKKGMNGYGFNATVWTS to TNTFFLTILHPRFVKMGPCW, the amyloid nucleation score rises from 0.413 ± 0.9 to 4.55 ± 0.1.

With TNVVRVSLCFYMY the amyloid nucleation score was 8.776 ± 0.069.

In the case of THSIF, the amyloid nucleation score is reported as “inactive”.
For TIVSDGAQDFQHHS, the amyloid nucleation score was “inactive”.
For TIWVEKLWDIYI, the amyloid nucleation score was “inactive”.
In the case of TKNVLLTYGHPMLDMFAVVY, the amyloid nucleation score is reported as “inactive”.
With TKWLLFLVRTRHVMMCGGVM the amyloid nucleation score was “inactive”.
